{"source": "patent US5663141A", "about": "“Hirudin/polyalkylene glycol conjugates and hirudin muteins” (BASF Aktiengesellschaft, priority 1989, dated 1997)", "molecules": {"B1": {"name": "HL 14B: hirudin mutein, Asp33→Lys33, Lys36→Arg36, Lys47→Arg47 (protein)", "chain": "VVYTDCTESGQNLCLCEGSNVCGQGNKCILGSKGERNQCVTGEGTPRPQSHNDGDFEEIPEEYLQ"}, "B2": {"name": "PEG2-HL 14B: hirudin mutein HL 14B carrying two methoxy-polyethylene glycol (8,000 Da) residues, Example 11 (conjugate)", "chain": "B1 chain", "modifications": "ends and bridges not checked; also: two methoxy-PEG (8,000 Da) on lysine side-chain amino groups, positions not given here"}}, "key": {"thrombin [1]": {"target": "thrombin"}, "[2]": {"experiment": "Pharmacokinetics of PEG2-hirudin conjugates in dogs (plasma anti-factor IIa activity)", "assay_type": "in vivo", "settings": "beagle dogs, 4,000 U/kg intravenous or subcutaneous, compared with underivatized hirudin, FIGS. 3 and 4", "procedure": "2 groups of dogs (beagle dogs, 4 animals in each group) each received intravenous or subcutaneous administration of 4,000 U/kg PEG2 -hirudin (0.2 ml vol). 2 ml samples of blood in 0.1M Na citrate were taken 0.25, 0.5, 1, 2, 3, 4, 6, 8, 24, 32, 48, 56, 72 and 80 h after the injection. Subsequently platelet-poor plasma was prepared by centrifugation at 4,000 g for 10 minutes, and the plasma PEG-hirudin concentration was determined by the thrombin inhibition in the chromogenic substrate assay with S 2238 (Kabi). For comparison, the same dogs were treated in another experiment with hirudin. The time course of the plasma hirudin concentration was subsequently determined as described above.\nFIGS. 3 and 4 depict the time course of the anti-factor IIa activities after intravenous and subcutaneous administration of PEG2 -hirudin and underivatized hirudin."}, "thrombin [3]": {"target": "thrombin (Homo sapiens, UniProt P00734)", "experiment": "thrombin inhibition assay with the chromogenic substrate S 2238 (specific activity)", "assay_type": "biochemical", "text": "The specific activity of the PEG1 -hirudin conjugate purified from the coupling mixture was 8,000 U/mg of protein (determined by the thrombin inhibition assay with the chromogenic substrate S 2238 (Kabi), (FEBS-Lett. (1983), 164, 307), protein determined by BCA assay with serum albumin as standard (Pierce)), and the molecular weight of the conjugate was 15,000 Da (Superose®-12 chromatography, Pharmacia)."}, "[4]": {"settings": "in vivo; cited from earlier work"}, "[5]": {"settings": "purified conjugate, protein determined by BCA assay with serum albumin as standard"}, "[6]": {"settings": "underivatized protein used as starting material"}}}
{"molecule": "desulfatohirudin (from UniProt P01050)", "values": [{"measurement": "specific activity", "setting": "thrombin [1]", "result": 8000, "unit": "ATU/mg"}]}
{"molecule": "PEG2-hirudin: desulfatohirudin carrying two methoxypolyethylene glycol (8,000 Da) residues, Example 10", "values": [{"measurement": "bioavailability", "setting": "[2]", "result": "better"}, {"measurement": "duration of the biological action (anti-factor IIa activity time course)", "setting": "[2]", "result": "distinctly prolonged"}, {"measurement": "specific activity", "setting": "thrombin [3]; [5]", "result": "6,200 U/mg of protein"}]}
{"molecule": "desulfatohirudin: hirudin prepared by genetic engineering, sulfate residue on Tyr 63 absent; sequences 1A + 2A + 3A [reference compound]", "values": [{"measurement": "specific activity", "setting": "thrombin [3]; [6]", "result": "8,000 ATU/mg"}]}
{"molecule": "PEG1-hirudin: desulfatohirudin carrying one methoxy-polyethylene glycol(8000) residue, Example 9", "values": [{"measurement": "specific activity", "setting": "thrombin [3]; [5]", "result": "8,000 U/mg of protein"}]}
{"molecule": "hirudin: naturally occurring anticoagulant protein of 65 amino acids from the leech Hirudo medicinalis, thrombin inhibitor", "values": [{"measurement": "half-life in the blood", "setting": "[4]", "result": "about 50 min"}]}
{"molecule": "B1", "values": [{"measurement": "specific activity", "setting": "thrombin [3]; [6]", "result": "8,900 ATU/mg"}]}
{"molecule": "B2", "values": [{"measurement": "specific activity", "setting": "thrombin [3]; [5]", "result": "8,300 U/mg of protein"}]}
